The nature of this series: yeast display, Sf9 membrane polyspecificity reagent, FACS + sequencing; frameworks hold sequencing errors. The gist of the method:
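Polyreactivity labels are assigned by the sorting gate from which each nanobody was recovered. The gates were low and high (top ~1%), set on anti-HA fluorescence for expression and streptavidin fluorescence for reagent binding. Before sorting, galactose-induced (36–48 hours) yeast display cells were stained for 1 hour at 4 °C with 10% biotinylated, detergent-solubilized Sf9 membrane reagent.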
With “QFQLVESGGGLVQAGGSLRLSCAASGLIFVYNDMGWYRQAPGKETELVAGITGTGGNTYYADSVKGRFTISRDNEKNTVYLQMNSLKPEDTAVYYCAASHTSYYLRYGYWGQGTQVTVSS”, the “polyreactivity (PSR sort gate)” value is “high polyreactivity”. The result for “QFQLVESGGGLVQAGGSLRLSCAASGLTFYAYARGWYRQAPGKDSELVAAISSGGSTSYADSVKGRFTISRDNAKYTVYLQMNSLKPEDTAVYYCAARPISSRFFGWGYNYWGQGTQVTVSS” reads “high polyreactivity”; that for “QFQLVESGGGLVQAGGSLRLSCAASGRIFDVNAMGWSRQAPGKESELVAAISTRGGGTYYADSVKGRFTISRDNAKNTVYLQMTSLKPEDTAVYYCNVVRRYGGRGIDYWGQGTQVTVSS”, “low polyreactivity”.

Regarding “QFQLVESGGGLVQAGGSLRLSCAASGRIFGVYAMGWYRQAPVKERQLVATISLSAGRTYYADSVKGRFTISRDNAKNTVYLQMNSLKPEDTAVYYCAAQSNYSIRRHYYTFRYSYDYWGQGTQVTVSS”, the “polyreactivity (PSR sort gate)” value is reported as “high polyreactivity”. The value for “QFQLVESGGGLVQAGGSLRLSCAASGRIFSHYAMGCYRQAPGKERELVAAISSGGITYYADSVNGRFTISRDNAKNTVYLQRNSLKPEDTAVYYCAAVRRRGTTYDYWGQGTQVTVSS” was “high polyreactivity”.

Regarding “QFQLVESGGGLVQAGGSLRLSCAASGRILSGNAMGWYRQAPGKERELVAAITNAGITKYADSVKGRFTISRDNAKNTVYLQMNSLKPEDTAVYYCATDRYAYNLYDYWGQGTQVTVSS”, the “polyreactivity (PSR sort gate)” value is “low polyreactivity”. The value for “QFQLVESGGGLVQAGGSLRLSCAASGRTFSGNTMGWYRQAPGKERELVAAITGRGGSTYYADSVKGRFTISRDNAKNTVYLQMNCLKPEDTAVYYCAALRYTFAGRFDYWGQGTQVTVSS” was “high polyreactivity”; that for “QFQLVESGGGLVQAGGSLRLSCAASGRTFWNYAMGWYRQAPGKERELVAAISVTGTNTYYADSVKGRFTISRDNAKNTVYLQMNSLKPEDTAVYYCAARGRPGLYYWGQGTQVTVSS” was “high polyreactivity”. The result for “QFQLVESGGGLVQAGGSLRLSCAASGRTLHGYTMGWYRQAPGKVREFVATISSIGGSTYYADSVKGRFTISRDNAKNTVYLQMNSLKPEDTAVYYCNRGRARVIFSGMDYWGQGTQVTVSS” reads “low polyreactivity”; that for “QFQLVESGGGLVQAGGSLRLSCAASGRTYRYTMGWSRHAPGKERELVAAISRSGGSTYYADSVKGRFTISRDNAKTTVYLQMNSLIPEDTAVYYCAKVIYRYNETYDYWGQGTQVTVSS”, “high polyreactivity”; that for “QFQLVESGGGLVQAGGSLRLSCAASGSIFANALGWYRQAPRKERELVAAISFSGGRTFYADSVKGRFTISRDNAKNTVYLQMNSLKPDDTTVYYCNKDYWGYFSYWKSYLYDYWGQGTQVTVSS”, “high polyreactivity”. The result for “QFQLVESGGGLVQAGGSLRLSCAASGSIFDGNAMGWYRQAPGKERELVAAISRRGGSTYYADSVKGRFTISRYNAKNTVYLQMNSLKPEDTAVYYCNAYLSYFDGNYWGQGTQVTVSS” reads “high polyreactivity”; that for “QFQLVESGGGLVQAGGSLRLSCAASGSIFELNAKGLYRTAPGKERELVAAITSSGSSTYYADSVKGRFTISRDNAKNTVYLQMNRLKPEDTAVYYCFRPHDYWGQGTQVTESS”, “low polyreactivity”. Take “QFQLVESGGGLVQAGGSLRLSCAASGSTFGVNAMGWYRQAPGKERELVAAISSSGSSTYADSVKGRFTISRDNAKNTVYLQMNSLKPEDTAVYYCNKTTLLTVEYDYWGQGTQVTVSS”: the “polyreactivity (PSR sort gate)” value is “low polyreactivity”.

For “QFQLVESGGGLVQAGGSLRLSCAASGSTFGVYAMGWYRQAPGKERELVATINSGGSTNYADSVKGLFTISRDNAKNTVYLQMNSLKPEDTAVYYCAAGPFWQDFYVYEYDYWGQGTQVTVSS”, the “polyreactivity (PSR sort gate)” value is on record as “low polyreactivity”.

For the sequence “QFQLVESGGGLVQAGGSLRLSCAASGSTFRRNTMGWYRQAPGKEREFVAAISRRGGSTYYADSVKGRFTISRDNAKNTVYLQMNRLKPEDTAVYYCAAPGLSRLYNVYYWPYDYWGQGTQVTVSS”, the “polyreactivity (PSR sort gate)” value is listed as “high polyreactivity”. The result for “QFQLVESGGGLVQAGGSLRLSCAASGSTFSANAMGWYRQAPGKERELVASISRRGGSTYYADSVKGRFTISRDIAKNTVYLQMNSLKPEDTAVYYCNKRFARQGSPSEYGRSQIGYYYWGQGTQVTVSS” reads “high polyreactivity”; that for “QFQLVESGGGLVQAGGSLRLSCAASGSTFTANAMGWYRQSPGKERELVAAITNSDGSTYYADSVKGRFTISRDNAKNTVYLQMNSLKPEDTAVYYCAKDYYACYWEMDYWGQGTQVTVSS”, “low polyreactivity”.

As to “QFQLVESGGGLVQAGGSLRLSCAASGSTFVYYAMGWYRQAPGKERELVAAITASGGGTYYADSVKGRFTISRDNAKNTVYLQMNSLKPEDTAVYYCAAYLGWGYDYWGQGTQVTVSS”, the “polyreactivity (PSR sort gate)” value is given as “low polyreactivity”.

“QFQLVESGGGLVQAGGSLRLSCAASGSTIIKNAMGWYRQAPGKERELVAAINWSVTRTYYADSVKGRFTISRDNAKNTVYLQMNSLKPEDTAVYYCAKVIARFVRYDYWGQGTQVTVSS”: the “polyreactivity (PSR sort gate)” value is “high polyreactivity”.

As to “QFQLVESGGGLVQAGGSLRLSCAASGSTYSYYAMGWYRQAPGKERELVAAISSRGGSTYYADSVKGRFTISRDNAMNTVYLQMNSLKPEDTAVYYCNADHQFRSSVSGDHDYWGQGTQVTVSS”, the “polyreactivity (PSR sort gate)” value is on record as “high polyreactivity”. The result for “QFQLVESGGGLVQAGGSLRLSCAASGVSNALGWYRQAPGKERELVAAISRSGGSTYYADSVKGRFTISRANAKNTVNLQMNSLKPEDTAVYYCAVGYTYVYRYSSHKYDYWGEGTQVTVSS” reads “high polyreactivity”; that for “QFQLVESGGGLVQAGGSLRLSCAASRFYTMGWSRQAPGKERELVAAISWSGGDTYYADSVKGRFTISRDNAKNTVYLQMTSLKPEDTAVYYCAKKTIGSYVHEPYYYWGHGTQVTVSS”, “low polyreactivity”. The value for “QFQLVESGGGLVQAGGSLRLSCADSGSIFSGYAMGRYRQEPGKDSELVASITRGGSTYYADSVKGRFTISLDNAKNNVYLQINSLKQEDTAVYYCARYGYKNRPLGMDYWGQGTQVTVSS” was “low polyreactivity”; that for “QFQLVESGGGLVQAGGSLRLSCASSGSIIGIYAMGWYRQAPGKERELVAAISWSGGSTYYADSVKGRFTISRDNAKNTVYLQMNSLKPEDTAVYYCAARGHYQYYWGQGTQVTVSS” was “high polyreactivity”; that for “QFQLVESGGGLVQAGGSLRLSSAASGSIFYTNAMGWYRQAPGKEREFVAGITRRGTSTNYADSVKGRFTISRDNAKNSVYLQMNSLKPEVTAVYYCNARYYLYWGQGTQVTVSS” was “low polyreactivity”. The result for “QFQLVESGGGLVQARGRLRLSCAASGSIFSYNAMGWYRQAPGKERELVARISSSGSTNYADSVKGRFTISRDNAKNTVYIQMNSLKPEDTAVYYCNKDPYWPSWTRRRREYYYWGQGTQVTVSS” reads “high polyreactivity”. For the sequence “QFQLVESGGGLVQARGSLRLSCAASGSIFDLNAMGWYRPAPGKERELVAAISSGGGTYYADSVKGRFTISRDNAKNTVYFQMYSLKPDDSAVYYCAAGKSSPRRIFEYWGQGTEVTVSS”, the “polyreactivity (PSR sort gate)” value was “high polyreactivity”. The result for “QFQLVESGGGLVQARGSLRLSCAASGSTFRYYGMGWYRQTPGKERELVAAISSSGGSTYYADSVKGRFTISRDNAKITVYLKMNSLKPEDNAVYYCAAGSRFVSSRLYYWGQGTQVTVSS” reads “high polyreactivity”; that for “QFQLVESGGGLYQAGGSLRLSCASSGITLYFYAMGWYRQAPGKVRELVAAISRGGRTYYADSVKGRFTISRDNAKNTVYLQMNSLKPEDTAVYYCAARYTSEYSAFDYWGQGTQVTVSS”, “low polyreactivity”. The result for “QFQLVESGGVLDQAGCSLRLSCAASGYTFYANAMGWYRQAPGKEREFVASIPWSGGSTYYADSVKGRFTISRDNAKNTVYLQMNSLKPEDTAVYYCAAESWFKYDYWGQGTQVTVSS” reads “low polyreactivity”; that for “QFQLVESGVGLVQAGGSLRFSCAASGRIFMPNAMGWYRQSPGKEREFVASISWSGGSTYYADSVKGRFTISRDNAKTTDYLQMNSLKPEDTAVYYCNARYGKRYYYWGQGTQVTVSS”, “low polyreactivity”. The result for “QFQLVESVRGLVQAGVSLRLSCAASGSTFNFYAMGLYRQPPGKERELVAAIRQSSGRTYYADSVKGRFTISRDNGNYTVYLQMNSLKPEDTAVYYCAAVRYNFNFKMYYWGQGTQVTVSS” reads “high polyreactivity”. As to “QFQLVESWGGLVQAGGSLRLSCAASGTMGWYRQAPVKERELVAAISQSGGSTYYADSVKGRFTISRDNAKNTVYLQMNSLKPEDTAVYYCAVDPLYGDPRRDYWGQGTQVTVSS”, the “polyreactivity (PSR sort gate)” value is given as “low polyreactivity”. The result for “QFQLVETGGGLDQAGGSLRLSCAASGTTFGVYAMGWYRQAPGKERELVAVITSRGGSTYYADSVKGRFTISRDNAKNTVYLQMNSLIPEDTAVYYCNVDSAYRRPPYDYWGQGTQVTVSS” reads “high polyreactivity”; that for “QGQHVESGGGLVQAGGSLRLSCAASGTFVYAMGWYRQAPGKERELVAAISYSGGSTYYADSVKGRFTISRDNAKNTVYLQMNSLKPEDTAVFYCNVLGWYYTTTKYDYWGQGTQVTVSS”, “high polyreactivity”. For the sequence “QGQIVESGGGLGQAGGSLRLSCAASGSIFWANAMGWYSQSPWKERELVAAISSSGGRTYYADSVKGRFTISRDNAKNTVYLQMNSLKPEDTAVHYCNKLRLPYYEQGDYWGQGTQVTVSS”, the “polyreactivity (PSR sort gate)” value is recorded as “high polyreactivity”.

Turning to “QGQLEDSGGGLVQAGGSLRLSCAASGFSFRSYGMGRYRQAPGKERELVAVISRSGGNTYYAASVKGRFTISRHNAKNTVYLQMHSLKPEDTAVYYCAATLVGTVIRRFDDWGQGTQVTVSS”, the “polyreactivity (PSR sort gate)” value is on record as “high polyreactivity”. The result for “QGQLEESGGGLVQAGGSLRLSCAAAGITFVDYSMGWYRQAPGKEMELVAGINWSGDGTSYADSVKGRFTISRDNAKNTVYLLMNSLKPEDTAVYDCAAYWYYYLMDYWGQGTQVTVSS” reads “low polyreactivity”; that for “QGQLGESGGGLVQAGGSLRLTCAASGNIFFVYAMGWYRQAPGNEWELVAAITWGGGSTNYADSVKGRFTISRDNAKKTVYLQMNSLKPEDTAVYYCATDNRYVVDSYYWGQGTQVTVSS”, “high polyreactivity”; that for “QGQLLESGGGLVQAGGSLRLSCAASRFNFRFYAIGWYRQAPGKERELVASITQGGSTYYADSVKGSFTISRDNAKNTVYLQMNSLKPVDTAVYSCAARYLGGRRSGDYSRYYWGQGTQVSVSS”, “high polyreactivity”.

The values above are taken from the nanobody polyreactivity screen of Harvey et al. (2022).
